Article PMC2865556 (Integrative biology : quantitative biosciences from nano to …, 2009)

Target: full-length t-SNARE heterodimer (syntaxin 1A and SNAP-25) (UniProt P32851 1-288; P60879 1-206)
Test: AFM single-molecule force spectroscopy

Sequence of full-length t-SNARE heterodimer (syntaxin 1A and SNAP-25) (P32851 whole entry, chain 1 of 2): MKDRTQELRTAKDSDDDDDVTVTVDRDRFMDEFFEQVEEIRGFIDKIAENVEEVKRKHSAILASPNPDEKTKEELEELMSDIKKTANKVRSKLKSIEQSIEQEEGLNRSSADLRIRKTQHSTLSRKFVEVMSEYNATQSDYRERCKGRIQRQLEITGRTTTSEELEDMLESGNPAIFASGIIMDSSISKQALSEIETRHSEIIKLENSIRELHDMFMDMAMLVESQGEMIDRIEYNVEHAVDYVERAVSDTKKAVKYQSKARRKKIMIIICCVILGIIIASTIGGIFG
Sequence of full-length t-SNARE heterodimer (syntaxin 1A and SNAP-25) (P60879 whole entry, chain 2 of 2): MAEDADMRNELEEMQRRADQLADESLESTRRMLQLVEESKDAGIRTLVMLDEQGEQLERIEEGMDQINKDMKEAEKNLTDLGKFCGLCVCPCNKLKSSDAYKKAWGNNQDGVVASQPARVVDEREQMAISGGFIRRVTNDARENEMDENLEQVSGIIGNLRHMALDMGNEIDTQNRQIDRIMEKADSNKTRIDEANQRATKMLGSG

Binder: FETSAAKLKRKYWWKNLKMMIILGVICAIILIIIIVYFST (domain or fragment) [VAMP 2 in v-SNARE bilayers after cleavage by BoNT/B (remaining membrane-anchored portion)]
- dissociation rate of the inner barrier (kβ1^o): 20.1 s⁻¹
- dissociation rate of the outer barrier (kβ2^o): 0.46 s⁻¹
